Test results published in patent publication US20200299396A1 (BALIOPHARMA, published 2020).

B1: Atrosimab (antibody)
heavy: HVQLVQSGAEVKKPGSSVKVSCKASGYTFTDFYINWVRQAPGQGLEWIGEIVPSQGEAKYNDKFKARVTITADKSTSTAYMELSSLRSEDTAVYYCARWDFLDYWGQGTTVTVSSGTGGGSGPSVFLFPPKPKDTLMISRTPEVTCVVVDVSHEDPEVKFNWYVDGVEVHNAKTKPREEQYNSTYRVVSVLTVLHQDWLNGKEYKCKVSNKGLPSSIEKTISKAKGQPREPSVFIFPPSDEQLKSGTASVVCLVNNFYPRDIAVEWEVDNALQSGNSQESVTEQDSKDSTYSLSSTLTLSKADYEKHKVYSCSVMHEALHNHYTQKSFNRGEC
light: DVQMTQSPSSLSASVGDRVTITCRSSQSLLHSNGNTYLHWYQQKPGKAPKLLIYTVSNRFSGVPSRFSGSGSGTDFTLTISSLQPEDFATYYCSQSTHVPYTFGGGTKVEIKGTGGGSGPSVFLFPPKPKDTLMISRTPEVTCVVVDVSHEDPEVKFNWYVDGVEVHNAKTKPREEQYNSTYRVVSVLTVLHQDWLNGKEYKCKVSNKGLPSSIEKTISKAKGQPREPSVFPLAPSSKSTSGGTAALGCLVKDYFPSDIAVEWESGALTSGVHTFPAVLQSSGLYSLSSVVTVPSSSLGTQTYSCSVMHEALHNHYTQKSVEPKSC
notes: The Fc is modified to reduce effector functions; Produced in CHO cells; also called Fv13.7-Fc1k; VHkC/VL1C heterodimer
B2: Fab 13.7 (Fab, V domains shown)
VH: HVQLVQSGAEVKKPGSSVKVSCKASGYTFTDFYINWVRQAPGQGLEWIGEIVPSQGEAKYNDKFKARVTITADKSTSTAYMELSSLRSEDTAVYYCARWDFLDYWGQGTTVTVSS
VL: DVQMTQSPSSLSASVGDRVTITCRSSQSLLHSNGNTYLHWYQQKPGKAPKLLIYTVSNRFSGVPSRFSGSGSGTDFTLTISSLQPEDFATYYCSQSTHVPYTFGGGTKVEIKR

How the values were obtained:
[1] = molecular target: T1, human TNFR1 on the cellular surface of HeLa, HT1080 and Kym-1 cells (human, UniProt P19438 30-455); assay: cell-based or functional assay
T1 sequence: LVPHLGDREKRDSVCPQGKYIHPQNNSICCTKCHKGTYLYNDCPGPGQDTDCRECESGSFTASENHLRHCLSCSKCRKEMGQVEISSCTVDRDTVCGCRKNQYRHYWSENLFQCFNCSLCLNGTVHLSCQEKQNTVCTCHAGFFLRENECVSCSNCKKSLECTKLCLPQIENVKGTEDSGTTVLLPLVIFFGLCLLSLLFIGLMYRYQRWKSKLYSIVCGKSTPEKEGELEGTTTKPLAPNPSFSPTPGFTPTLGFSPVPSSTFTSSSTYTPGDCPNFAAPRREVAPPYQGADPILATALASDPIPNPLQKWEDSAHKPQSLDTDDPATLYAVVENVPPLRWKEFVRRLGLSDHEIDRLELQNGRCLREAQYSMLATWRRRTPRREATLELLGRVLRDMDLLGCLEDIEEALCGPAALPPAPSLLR

[2] = molecular target: T2, complement protein C1q (UniProt P02745 23-245; P02746 28-253; P02747 29-245); assay: ELISA, antibody immobilized, C1q added, n=2; concentration not shown
T2 construct: also called C1q Complement protein

[3] = molecular target: T3, Recombinant human TNFR1-Fc fusion protein (human, UniProt P19438 30-211, limits assumed); assay: QCM at 37 C, TNFR1-Fc immobilized at ~94 ΔHz, 1:1 binding algorithm; quartz crystal microbalance, TNFR1 immobilized at ~94 ΔHz
T3 construct: not shown: Fc part
T3 sequence: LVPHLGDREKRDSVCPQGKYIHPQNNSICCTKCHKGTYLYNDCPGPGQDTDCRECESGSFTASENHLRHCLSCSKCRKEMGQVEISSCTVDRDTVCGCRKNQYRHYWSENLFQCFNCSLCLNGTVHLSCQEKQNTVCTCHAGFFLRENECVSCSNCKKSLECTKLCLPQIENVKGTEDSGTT
Procedure: Real-time binding dynamics in protein-protein interactions were determined by quartz crystal microbalance measurements (Cell-200 C-Fast, Attana, Stockholm, Sweden). One of the binding partners (TNFR1-Fc) was chemically immobilized on a LNB Carboxyl Sensor Chip (3623-3103, Attana, Stockholm, Sweden) according to the manufacturer's protocol at a moderate density of ˜94 ΔHz. Binding experiments were performed with samples (analyte) diluted in PBST (PBS, 0.1% Tween 20) between 128 nM and 4 nM (1:2 dilution steps) at pH 7.4 with a flow rate of 25 μl/min at 37° C. The chip was regenerated with 25 μl 20 mM glycine, pH 2.0. Every third measurement, an injection of running buffer was measured which was subtracted from the binding curve prior to data analysis. Data were collected using the software provided by Attana and analyzed by Attaché Office Evaluation software (Attana, Stockholm, Sweden) and TraceDrawe (ridgview instruments, Vange, Sweden).

[4] = molecular target: T3, Recombinant human TNFR1-Fc fusion …; assay: ELISA under equilibrium conditions, TNFR1-Fc coated; ELISA under equilibrium conditions
Procedure: (§1) Microtiter plates were coated with 100 μl of TNFR1-Fc fusion protein (1 μg/ml in PBS) and incubated at 4° C. overnight. The residual binding sites were blocked with 2% MPBS (skim milk in PBS, 200 μl per well) at room temperature for 2 hours and subsequently washed twice with PBS. 100 μl of the samples diluted in 2% MPBS were incubated at room temperature for 1 hour prior to the last incubation step with 100 μl of the HRP conjugated detection antibodies in 2% MPBS. Bound protein was detected with 100 μl TMB substrate solution (1 mg/ml 3,3′,5,5′-Tetramethylbenzidine[TMB], 0.006% H₂O₂ in 100 mM Na-acetate buffer, pH 6 at RT), the HRP-reaction was stopped by the addition of 50 μl 1 M H₂SO₄ and the absorption at the wavelength of 450 nm was measured using the Infinite microtiter plate reader (TECAN, Maennedorf, Switzerland). Between each incubation step and in advance of the detection, the plates were washed twice times with PBST and twice with PBS.

[5] = molecular target: T3, Recombinant human TNFR1-Fc fusion …; assay: ELISA under equilibrium conditions, TNFR1-Fc coated
Procedure: as §1

[6] = molecular target: T4, human Fcγ receptor IIb (human, UniProt P31994 46-217, limits assumed); assay: ELISA, antibody immobilized, human FcγRIIb added, n=2; concentration not shown
T4 construct: also called FcγRIIb
T4 sequence (looked up): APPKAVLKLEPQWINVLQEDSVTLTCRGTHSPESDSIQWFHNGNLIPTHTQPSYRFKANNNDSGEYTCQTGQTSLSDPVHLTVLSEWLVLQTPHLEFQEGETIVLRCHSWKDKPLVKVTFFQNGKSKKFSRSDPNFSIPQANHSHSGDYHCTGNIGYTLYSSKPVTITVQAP

[7] = molecular target: T5, human Fcγ receptor Ia (human, UniProt P12314 16-288, limits assumed); assay: ELISA, antibody immobilized, human FcγRI added, n=2; concentration not shown
T5 construct: also called human FcγRI; FcγRI

[8] = molecular target: T6, human Fcγ receptor IIIa (human, UniProt P08637 17-208, limits assumed); assay: ELISA, antibody immobilized, human FcγRIII added, n=2; concentration not shown
T6 construct: also called human FcγRIII; FcγRIII

[9] = molecular target: T1, human TNFR1 on the cellular surface of …; assay: cell-based or functional assay; remark: listed apart in the source

T2 sequence (P02745 23-245 limits assumed, chain 1 of 3): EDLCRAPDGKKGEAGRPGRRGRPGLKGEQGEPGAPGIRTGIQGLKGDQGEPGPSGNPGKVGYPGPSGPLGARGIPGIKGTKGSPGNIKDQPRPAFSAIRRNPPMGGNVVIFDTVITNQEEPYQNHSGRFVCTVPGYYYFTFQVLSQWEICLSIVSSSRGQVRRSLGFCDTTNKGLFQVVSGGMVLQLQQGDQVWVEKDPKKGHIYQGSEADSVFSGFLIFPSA
T2 sequence (P02746 28-253 limits assumed, chain 2 of 3): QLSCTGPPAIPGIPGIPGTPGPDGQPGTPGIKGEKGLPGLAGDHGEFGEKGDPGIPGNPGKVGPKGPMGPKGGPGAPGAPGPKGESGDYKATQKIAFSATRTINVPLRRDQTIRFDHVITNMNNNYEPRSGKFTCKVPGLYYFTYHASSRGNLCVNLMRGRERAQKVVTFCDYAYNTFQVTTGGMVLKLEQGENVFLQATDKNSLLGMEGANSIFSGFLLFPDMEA
T2 sequence (P02747 29-245 limits assumed, chain 3 of 3): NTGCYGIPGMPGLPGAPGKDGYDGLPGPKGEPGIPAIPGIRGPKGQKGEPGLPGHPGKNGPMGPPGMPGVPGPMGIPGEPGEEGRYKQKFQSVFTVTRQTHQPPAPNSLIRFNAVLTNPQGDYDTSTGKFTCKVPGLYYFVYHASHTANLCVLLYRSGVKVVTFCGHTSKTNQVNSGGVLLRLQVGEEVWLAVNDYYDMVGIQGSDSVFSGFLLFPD
T5 sequence (P12314 16-288 limits assumed): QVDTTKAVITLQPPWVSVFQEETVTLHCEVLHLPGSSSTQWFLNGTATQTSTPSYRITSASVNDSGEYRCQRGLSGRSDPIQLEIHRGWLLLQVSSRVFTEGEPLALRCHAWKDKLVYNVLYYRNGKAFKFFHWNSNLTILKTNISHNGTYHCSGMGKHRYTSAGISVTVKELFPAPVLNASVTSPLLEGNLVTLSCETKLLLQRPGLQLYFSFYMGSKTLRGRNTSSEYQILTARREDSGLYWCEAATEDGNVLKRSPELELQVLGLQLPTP
T6 sequence (P08637 17-208 limits assumed): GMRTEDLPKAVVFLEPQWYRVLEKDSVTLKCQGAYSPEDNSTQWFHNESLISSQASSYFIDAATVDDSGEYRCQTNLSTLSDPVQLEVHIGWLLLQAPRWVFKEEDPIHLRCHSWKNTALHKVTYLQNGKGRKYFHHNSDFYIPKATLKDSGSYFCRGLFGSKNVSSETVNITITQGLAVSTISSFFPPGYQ

Row | Binder | IC50, Cell death induction [nM] (Kym-1 cells, TNF-induced) [1] | IC50, IL-6 [nM] (IL-6 release from HeLa cells, 0.1 nM TNF) [1] | IC50, IL-8 [nM] (IL-8 release from HT1080 cells, 0.1 nM TNF) [1] | binding result [2] | Kd [3] [nM] | koff [3] [s⁻¹] | kon [3] [M⁻¹ s⁻¹] | EC50 [4] [nM] | fold reduction in binding activity compared to ATROSAB [5] [fold] | fold reduction in binding activity compared to Fab 13.7 [5] [fold] | binding result [6] | binding result [7] | binding result [8] | fold more potent inhibition compared to ATROSAB, IL-6 release assay [9] [fold] | fold more potent inhibition compared to ATROSAB, IL-8 release assay [9] [fold] | fold more potent inhibition compared to ATROSAB, cell death induction assay [9] [fold]
1 | B1 | 16.2 | 54.5 | 24.2 | no binding | 2.7 | 0.00098 | 370000 | 0.4 | 4 | 2 | no binding | no binding | no binding | 3 | 3.5 | 4
2 | B2 | 9.5 | 37.1 | 12.7 |  |  |  |  |  |  |  |  |  |  |  |  | 
